Measured values taken from paper PMC9915769, “A novel binding site on the cryptic intervening domain is a motif-dependent regulator of O-GlcNAc transferase” (Research Square, 2023).
Each block holds one molecule with its values, some of them ahead of it. Non-standard residues stand in square brackets, D forms with d. No end group written: not given here. pY = N[C@@H](Cc1ccc(OP(=O)(O)O)cc1)C(=O)O

What was measured:
[1] = target: fluorescently labeled 5-FAM-SMG9 peptide (human) (UniProt Q9H0W8); assay: fluorescence polarisation; saturation: 2-fold serial dilutions of OGT (WT or mutant) plus equal volume of 0.4 uM 5-FAM-SMG9; TBS (150 mM NaCl, 20 mM Tris-HCl, pH 8.0); 20 min, room temperature
[2] = target: T1, OGT (Homo sapiens, UniProt O15294); assay: Competitive fluorescence polarization (FP) binding assay with 5-FAM-SMG9 peptide; settings: FP competition with 5-FAM-SMG9 for OGT binding, TBS pH 8.0, n=3
T1 construct: two OGT constructs, full-length OGT (OGT) and the protein crystallization construct OGT4.5; His6 (N); made in house; host or cells: E. coli BL21(DE3)
T1 sequence (O15294 1-1046): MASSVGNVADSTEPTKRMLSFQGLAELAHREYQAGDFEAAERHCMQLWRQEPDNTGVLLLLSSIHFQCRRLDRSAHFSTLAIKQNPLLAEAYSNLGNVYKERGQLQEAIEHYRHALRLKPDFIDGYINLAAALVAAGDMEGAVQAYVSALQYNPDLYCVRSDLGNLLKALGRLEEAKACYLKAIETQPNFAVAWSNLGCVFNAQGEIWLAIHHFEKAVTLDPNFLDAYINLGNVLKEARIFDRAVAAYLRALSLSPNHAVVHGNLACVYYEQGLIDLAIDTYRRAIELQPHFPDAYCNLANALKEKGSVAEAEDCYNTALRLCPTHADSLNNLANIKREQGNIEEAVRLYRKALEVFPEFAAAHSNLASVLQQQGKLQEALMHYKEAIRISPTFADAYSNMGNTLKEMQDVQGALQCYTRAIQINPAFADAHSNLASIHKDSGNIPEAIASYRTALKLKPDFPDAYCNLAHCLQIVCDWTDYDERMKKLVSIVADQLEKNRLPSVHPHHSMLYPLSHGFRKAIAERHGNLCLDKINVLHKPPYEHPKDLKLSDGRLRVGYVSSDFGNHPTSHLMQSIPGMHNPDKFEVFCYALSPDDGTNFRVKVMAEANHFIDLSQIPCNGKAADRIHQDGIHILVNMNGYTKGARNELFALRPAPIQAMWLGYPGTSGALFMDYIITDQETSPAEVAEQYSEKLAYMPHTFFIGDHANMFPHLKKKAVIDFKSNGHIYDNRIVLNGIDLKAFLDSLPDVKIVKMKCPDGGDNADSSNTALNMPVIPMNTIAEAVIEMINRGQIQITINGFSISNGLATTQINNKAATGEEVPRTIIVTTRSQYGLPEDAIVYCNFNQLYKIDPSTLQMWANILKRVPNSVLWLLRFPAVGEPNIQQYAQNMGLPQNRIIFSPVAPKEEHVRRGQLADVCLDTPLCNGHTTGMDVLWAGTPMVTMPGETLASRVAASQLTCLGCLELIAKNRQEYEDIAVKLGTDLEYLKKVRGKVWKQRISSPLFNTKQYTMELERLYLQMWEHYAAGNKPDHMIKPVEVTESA
Protocol: (§1) All FP measurements were carried out in black small volume 384-well plates (Greiner Bio-One). For saturation binding assays, 2-fold serial dilutions of recombinantly purified OGT were prepared in TBS (150 mM NaCl, 20 mM Tris-HCl, pH 8.0). 5-FAM-SMG9 fluorescent peptide at 0.4 μM in TBS was added in equal volume to the OGT dilution series. For competition binding assays, 2-fold serial dilutions of unlabeled peptide were prepared in TBS. An equal volume of 20 μM OGT with 0.4 μM 5-FAM-SMG9 in TBS was added to the dilution series. After 20 min incubation in the dark at room temperature, FP was read on a BMG PheraStar multimode plate reader equipt with 488, 520, 520 FP filter cube (BMG Labtech).

[3] = tested on: OGT I787R; assay: Saturation FP binding assay, OGT mutant I787R; set-up: species or system Human; settings: 5-FAM-SMG9 0.4 μM stock mixed 1:1, TBS pH 8.0, n=3
Excerpt: (§2) To confirm the SMG9 peptide binding mode in our crystal structure, we mutated each of the two primary binding features: the hydrophobic pocket (F723, I734, and I787) and the bidentate donor N791, and measured their changes in binding affinity for SMG9 peptide. Each of the hydrophobic OGT residues were mutated to a glutamate or arginine, while the asparagine bidentate interaction was disrupted by mutation to alanine. Each mutated OGT construct was recombinantly expressed in E coli and purified at high concentration for FP saturation binding assays with fluorescent SMG9 peptide. Insertion of charged residues into the hydrophobic pocket (F723E, I734R, I787E, and I787R) as well as disruption of the bidentate backbone interaction (N791 A) each shifted EC50 values by >10-fold (Fig. 2d, Extended data Fig. 3a), showing that these mutations substantially disrupt SMG9 peptide binding.
as §1, with “For competition binding assays, 2-fold serial dilutions of unlabeled peptide were prepared in TBS. An equal volume of 20 μM OGT with 0.4 μM 5-FAM-SMG9 in TBS was added to the dilution series.” left out

[4] = tested on: OGT I734R; assay: Saturation FP binding assay, OGT mutant I734R; set-up: species or system Human; settings: 5-FAM-SMG9 0.4 μM stock mixed 1:1, TBS pH 8.0, n=3
Excerpt: as §2
as §1, with “For competition binding assays, 2-fold serial dilutions of unlabeled peptide were prepared in TBS. An equal volume of 20 μM OGT with 0.4 μM 5-FAM-SMG9 in TBS was added to the dilution series.” left out

[5] = tested on: OGT I787E; assay: Saturation FP binding assay, OGT mutant I787E; set-up: species or system Human; settings: 5-FAM-SMG9 0.4 μM stock mixed 1:1, TBS pH 8.0, n=3
Excerpt: as §2
as §1, with “For competition binding assays, 2-fold serial dilutions of unlabeled peptide were prepared in TBS. An equal volume of 20 μM OGT with 0.4 μM 5-FAM-SMG9 in TBS was added to the dilution series.” left out

[6] = tested on: OGT F723E; assay: Saturation FP binding assay, OGT mutant F723E; set-up: species or system Human; settings: 5-FAM-SMG9 0.4 μM stock mixed 1:1, TBS pH 8.0, n=3
Excerpt: as §2
as §1, with “For competition binding assays, 2-fold serial dilutions of unlabeled peptide were prepared in TBS. An equal volume of 20 μM OGT with 0.4 μM 5-FAM-SMG9 in TBS was added to the dilution series.” left out

[7] = tested on: OGT N791A; assay: Saturation FP binding assay, OGT mutant N791A; set-up: species or system Human; settings: 5-FAM-SMG9 0.4 μM stock mixed 1:1, TBS pH 8.0, n=3
Excerpt: as §2
as §1, with “For competition binding assays, 2-fold serial dilutions of unlabeled peptide were prepared in TBS. An equal volume of 20 μM OGT with 0.4 μM 5-FAM-SMG9 in TBS was added to the dilution series.” left out

[8] = target: T2, full-length O-GlcNAc transferase (OGT), recombinant (human, UniProt O15294-3 1-1036); assay: MST
T2 chain: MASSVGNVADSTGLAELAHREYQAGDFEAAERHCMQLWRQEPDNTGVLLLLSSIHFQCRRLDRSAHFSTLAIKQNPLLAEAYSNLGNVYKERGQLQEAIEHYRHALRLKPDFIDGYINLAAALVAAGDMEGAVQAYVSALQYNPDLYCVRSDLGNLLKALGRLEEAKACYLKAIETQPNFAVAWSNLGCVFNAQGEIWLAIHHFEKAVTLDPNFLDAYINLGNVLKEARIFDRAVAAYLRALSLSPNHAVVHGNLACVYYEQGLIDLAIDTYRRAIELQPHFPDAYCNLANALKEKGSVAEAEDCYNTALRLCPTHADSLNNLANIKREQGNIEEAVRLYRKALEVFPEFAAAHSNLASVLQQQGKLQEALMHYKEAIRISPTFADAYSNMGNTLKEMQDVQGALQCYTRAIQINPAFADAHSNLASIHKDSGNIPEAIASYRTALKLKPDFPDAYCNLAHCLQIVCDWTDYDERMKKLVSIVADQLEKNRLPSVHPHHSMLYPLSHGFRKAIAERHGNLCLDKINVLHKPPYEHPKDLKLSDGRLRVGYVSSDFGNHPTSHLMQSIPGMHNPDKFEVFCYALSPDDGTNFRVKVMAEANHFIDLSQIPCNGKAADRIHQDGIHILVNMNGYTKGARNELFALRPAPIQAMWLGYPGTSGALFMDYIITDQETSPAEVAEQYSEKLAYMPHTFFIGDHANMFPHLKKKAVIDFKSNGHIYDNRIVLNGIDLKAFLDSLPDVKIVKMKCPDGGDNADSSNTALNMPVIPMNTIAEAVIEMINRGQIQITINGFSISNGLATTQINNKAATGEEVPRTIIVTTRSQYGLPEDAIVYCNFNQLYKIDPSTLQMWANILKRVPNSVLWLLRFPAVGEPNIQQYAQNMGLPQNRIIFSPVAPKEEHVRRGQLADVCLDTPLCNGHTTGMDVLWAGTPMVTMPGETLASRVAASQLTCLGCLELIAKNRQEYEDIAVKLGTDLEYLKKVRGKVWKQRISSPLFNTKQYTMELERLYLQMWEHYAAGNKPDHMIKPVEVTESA

- peptide binding to OGT (FP competition) [2]: significantly disrupted peptide binding
Molecule: SMG9 pY147: phosphorylated SMG9 peptide (pY147) (QRPTQPV[pY]QIQNRGMG)

- fold shift in EC50 relative to WT SMG9 peptide [2]: > 10 fold
Molecule: SMG9 Y147F: SMG9 peptide with Y147F mutation (QRPTQPVFQIQNRGMG)

- fold shift in EC50 against wild-type OGT [1]: > 10 fold
Molecule: OGT I787E, recombinant (from UniProt O15294-3 1-1036) (enzyme)

- fold shift in EC50 against wild-type OGT [1]: > 10 fold
Molecule: OGT I734R, recombinant (enzyme)

The next lines start with the molecule.

Molecule: OGT N791A, recombinant (enzyme)
- fold shift in EC50 against wild-type OGT [1]: > 10 fold

Molecule: OGT I787R, recombinant (from UniProt O15294-3 1-1036) (enzyme)
- fold shift in EC50 against wild-type OGT [1]: > 10 fold

Molecule: OGT F723E, recombinant (enzyme)
- fold shift in EC50 against wild-type OGT [1]: > 10 fold

Molecule: 5-FAM-SMG9 peptide: fluorescently labeled 5-FAM SMG9 peptide, probe for MST and FP assays (QRPTQPVYQIQNRGMG; not fully specified (N-terminus); also: 5-FAM label, position not given here)
- fold shift in EC50 relative to wild-type OGT [3]: > 10 fold
- fold shift in EC50 relative to wild-type OGT [4]: > 10 fold
- fold shift in EC50 relative to wild-type OGT [5]: > 10 fold
- fold shift in EC50 relative to wild-type OGT [6]: > 10 fold
- fold shift in EC50 relative to wild-type OGT [7]: > 10 fold

B1: fluorescently labeled 5-FAM-SMG9 peptide (peptide, UniProt Q9H0W8 140-155, looked up)
peptide: QRPTQPVYQIQNRGMG
modifications: not fully specified (N-terminus); also: 5-FAM label, position not given here
notes: SMG9, human, 16-mer peptide with the PxYx[I/L] motif, residues 140-155 as stated for the SMG9 peptide; The limits 140-155 are printed for the SMG9 peptide of the crystal; the labelled peptide bears the same name; also called fluorescent SMG9 peptide; source: synthetic peptide (solid phase peptide synthesis, Ontores)
- Kd [8]: 13.1 µM
